Experimental data reported in patent publication US6200577A, “Anti-herpesviral agents and assays therefor” (priority 1996, dated 2001).

Legend:
[1] = Solubility of synthetic peptides in buffer; assay type: physicochemical; conditions: peptides dissolved in 20 mM Tris-HCl, pH 8.0, 250 mM NaCl; unpurified preparations
Method: Synthesis and Purification of Oligopeptides. Peptides were synthesised by continuous flow Fmoc chemistry (Atherton and Sheppard, 1989; McLean et al., 1991) and, where stated in the text, were purified by preparative reverse-phase HPLC (Owsianka et al., 1993). The Mr values of peptides were determined by fast atom bombardment mass spectrometry (M-Scan) and corresponded to the predicted values. Peptides were dissolved in 20 mM Tris-HCl, pH 8.0, 250 mM NaCl and centrifuged at 11,500 g for 1 minute prior to use. […] Precipitates were removed by centrifugation before use.

[2] = target: T1, VP16/VP22trunc interaction (Human herpesvirus 1, UniProt P06492); test: Co-purification of VP16 with VP22trunc on Ni-NTA resin in presence of peptides; assay type: binding, HSV-1; conditions: crude peptide at 2 mg/ml (about 1 mM), equal volume mixed with partially purified VP16 extract before VP22trunc
T1 construct: Plasmid pETVP16 was used to express full-length VP16 under the control of the T7 RNA polymerase promoter; made in house; host or cells: E. coli BL21(DE3)
T1 sequence (P06492 whole entry): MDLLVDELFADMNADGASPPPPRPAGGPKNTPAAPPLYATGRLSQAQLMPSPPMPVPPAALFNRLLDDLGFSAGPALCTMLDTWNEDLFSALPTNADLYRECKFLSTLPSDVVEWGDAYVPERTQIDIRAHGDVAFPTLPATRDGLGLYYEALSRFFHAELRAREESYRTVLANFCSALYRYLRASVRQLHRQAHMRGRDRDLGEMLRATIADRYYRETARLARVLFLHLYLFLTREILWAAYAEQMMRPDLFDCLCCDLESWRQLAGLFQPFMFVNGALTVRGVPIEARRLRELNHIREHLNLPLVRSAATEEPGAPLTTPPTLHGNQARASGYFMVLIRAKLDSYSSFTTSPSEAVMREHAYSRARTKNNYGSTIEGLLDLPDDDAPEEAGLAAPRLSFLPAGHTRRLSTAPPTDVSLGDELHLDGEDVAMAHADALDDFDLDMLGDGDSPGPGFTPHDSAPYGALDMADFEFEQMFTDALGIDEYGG
Method: FIG. 4 Co-elution of VP16 with VP22trunc from Ni-NTA resin. Partially purified extract containing VP16 was incubated in the absence of (lane 14) or presence of […] of VP22trunc (lanes 3 to 13). In lanes 3 to 12, an equal volume of the individual peptides at 2 mg/ml was added to the extract prior to VP22trunc. Peptides added to each reaction were as follows: lane 3, peptide A; lane 4, peptide B; lane 5, peptide C; lane 6, peptide D; lane 7, peptide E; lane 8, peptide F; lane 9, peptide G; lane 10, peptide H; lane 11, peptide I; lane 12, peptide J; lane 13, no peptide. Lanes 3 to 14 show the polypeptides eluted from Ni-NTA resin. Other samples were as follows: lane 1, partially purified VP16 extract, lane 2, purified VP16; lane 15, purified VP22trunc. Samples were electrophoresed on a 12% polyacrylamide gel and the apparent molecular weights of VP16 (65 KDa) and VP22trunc (16 KDa) are shown.
Co-purification of VP16 with VP22trunc on Ni-NTA Resin. Purified VP22trunc and a partially purified extract containing VP16, both in 20 mM Tris-HCl, pH8.0, 250 mM NaCl, were mixed at 4° C. for 15 to 30 minutes on a rotator. 50 μl of equilibrated Ni-NTA resin was added to each mixture and incubation was continued at 40C for a further 15 to 30 minutes. Resin was pelleted at 800 g for 1 minute and the supernatant (non-bound fraction) was removed. Resin was washed sequentially with 0.5 ml of 20 mM Tris-HCl, pH 8.0, 250 mM NaCl, 5 mM imidazole (twice) and 0.5 ml of 20 mM Tris-HCl, pH 8.0, 250 mM NaCl, 60 mM imidazole (four times). Bound protein was eluted by addition of 50 μl of boiling mix (160 mM Tris-HCl, pH 6.7, 2% SDS, 700 mM β-mercaptoethanol, 10% glycerol, 0.002% bromophenol blue) followed by heating to 100° C. for 5 minutes. For peptide studies, peptides were dissolved in 20 mM Tris-HCl, pH8.0, 250 mM NaCl at a concentration of 2 mg/ml. Incubation of peptides with partially purified VP16 extracts was performed at ambient temperature for 2 hours prior to the addition of VP22trunc. Samples were electrophoresed on denaturing polyacrylamide gels.
Results presented in Section 2(i) had shown that VP16 co-elutes from Ni-NTA resin in the presence of VP22trunc and it was concluded that this indicated interaction between these polypeptides. The ability of synthetic peptides to inhibit this interaction was analysed by mixing them individually with the partially purified VP16 extract prior to addition of VP22trunc. From the intensity of the 65 KDa species in the crude extract (FIG. 4, lane 2), it was estimated that the concentration of VP16 was approximately […]. To ensure that experiments were performed in an excess of peptide, peptides were prepared at a concentration of 2 mg/ml (about 1 mM) and equal volumes of peptide and extract were mixed. This gave a relative molar ratio of VP16 to peptide of 1:300. However, it should be noted that certain peptides were not completely soluble (Table 1) and in those cases, the ratio would be reduced.

VP16 = target: T2, VP16 (Human herpesvirus 1, UniProt P06492); test: ELISA of direct binding of VP16 to plate-coated peptides; design: species or system HSV-1; conditions: wells coated with peptide up to 500 μg/ml; VP16 1.6 μg/ml; FIG. 10
T2 construct: Plasmid pETVP16 was used to express full-length VP16 under the control of the T7 RNA polymerase promoter; made in house; host or cells: E. coli BL21(DE3)
T2 sequence (P06492 whole entry): as above
Method: FIG. 10 Binding of VP16 to peptides. Microtitre plates were coated with 5-fold dilutions of peptides ranging from 500 μg/ml to 1 μg/ml and blocked with PBS/10% NCS. VP16 was then added to a final concentration of 1.6 μg/ml and detected with LP1. The legend for the peptides added is shown to the right of the graph.
Dilutions of proteins in PBS were coated overnight onto flat bottomed micro-titre plates (Dynatech) at 37° C. and then blocked with either 2% BSA or 10% new-born calf serum (NCS) in PBS for 1 hour at 37° C. Specific binding of a second protein to the plate-bound protein was performed for 1.5-2 hours at ambient temperature. a Excess secondary protein was removed by washing four times with PBS, 0.3% Tween 20. Bound protein was detected by incubation for 1.5-2 hours with LP1 antibody in PBS, 1% gelatin or PBS, 2% NCS. The bound antibody was detected by incubation for 1 hour at ambient temperature with anti-mouse antibody conjugated to HRP (1:500) and visualised with Smg/ml enzyme substrate 2,2'-azino-bis(3-ethylbenzthiazoline-6-sulphonic acid) (ABTS; Sigma) in citrate-phosphate buffer containing 6 μl hydrogen peroxide in a total volume of 20 ml. Optical densities were measured on a Titertek Multiscan PLUS instrument.
To examine whether VP16 could bind directly to the peptides, wells were coated with each peptide (A-J) at a range of concentrations from […] to 500 μg/ml and the plate was then blocked with […]. […] Nonetheless, the data for peptides D and E implicate direct binding of these peptides to VP16 as the mechanism for inhibiting its interaction with VP22. Peptide H also was active in experiments which prevented gB binding to VP22trunc [Section 4 (iii)] and thus also forms an aspect of the invention.

gB/VP22trunc binding = target: T3, gB/VP22trunc binding (Human herpesvirus 1, UniProt P10211); test: Far Western analysis of peptide inhibition of GST-gB binding to VP22trunc; design: species or system HSV-1; conditions: peptide 250 μg/ml co-incubated with GST-gB 1.2 μg/ml; FIG. 12B
T3 construct: linked residues 798 to 904 of gB to the glutathione-S-transferase (GST) protein expressed by pGex2TNMCR; made in house; host or cells: GST-gB: E. coli DH5alpha; VP22trunc: E. coli BL21(DE3)
T3 sequence (P10211 798-904): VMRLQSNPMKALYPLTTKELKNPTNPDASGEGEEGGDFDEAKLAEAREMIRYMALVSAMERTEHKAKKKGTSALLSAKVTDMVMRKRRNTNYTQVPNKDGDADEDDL
Method: (B) Inhibition of binding of GST-gB (final concentration 1.2 μg/ml)and each of the following peptides at a final concentration of 250 μg/ml: lane 1, no peptide; lane 2, peptide A; lane 3, peptide B; lane 4, peptide C; lane 5, peptide D; lane 6, peptide E; lane 7, peptide F; lane 8, peptide G; lane 9, peptide H; lane 10, peptide I; lane 11, peptide J. Bound GST-gB was detected with anti-GST antibody.
Following electrophoresis, proteins were electrotransferred to either Hybond or ProBlott (Applied Biosystems) membrane and the membrane was incubated in renaturation buffer (50 mM Tris-HCl, pH 8.0, 150 mM NaCl, 10% glycerol, 1 mM DTT) at 4° C. for 5-6 hours.
For membranes probed with GST-gB, blocking was performed overnight in PBSA containing 1% non-fat dried milk and 0.05% Tween 20 at 4° C. Membranes were then washed twice in renaturation buffer (10 min/wash) prior to incubation with fusion protein (final concentration 0.5 μg/ml) in renaturation buffer containing 1% BSA. Incubation was again performed overnight at 4° C. Following washing with renaturation buffer (four times, 10 minutes/wash) and a brief rinse with blocking buffer, the membrane was incubated with anti-GST antibody in PBSA, 1% non-fat dried milk, 0.05% Tween 20 and 1% BSA for 1 hour at ambient temperature. After four washes with PBSA, 0.05% Tween 20 (10 minutes/wash), bound antibody was detected with secondary antibody (goat anti-rabbit IgG, whole molecule; Sigma) conjugated to Horse Radish Peroxidase (HRP) by incubating at room temperature for 45 minutes. Following four further washes with PBSA, 0.05% Tween 20, the secondary antibody was visualised by enhanced chemiluminescence.
Similar to the studies performed with inhibition of binding of VP16 to VP22, peptides A to J, which span residues 18 to 144 of VP22trunc, were used to examine whether gB binding could also be prevented (FIG. 12B).

ITTIRVTVCEGKNLLQRANE [Peptide H]
Solubility [1]: soluble | Co-elution of VP16 with VP22trunc from Ni-NTA resin after incubation with peptide [2]: does not prevent interaction with VP22 | Direct binding of VP16 to plate-coated peptide (ELISA) (VP16): evidence also for VP16 binding | Inhibition of GST-gB binding to VP22trunc (Far Western) (gB/VP22trunc binding): completely inhibited binding of gB
